Experimental data from article PMC3634854, “S100A12 Suppresses Pro-inflammatory, but Not Pro-Thrombotic Functions of Serum Amyloid A” (PLoS ONE, 2013).
Where “and” joins values, the source holds several entries; their conditions need not be identical. Equal values may be shown once.

Molecular target: the molecule itself
Assay: cross-linking; S100A12 (1 µg) and SAA (1 µg), alone or together, with bis[sulfosuccinimidyl] suberate (BS3, 5 µM) in PBS, in the presence or absence of 1 mM Ca2+, 30 min at RT in the dark; 10% SDS-PAGE under non-reducing conditions, silver stain

B1: Human recombinant S100A12 (natural protein, UniProt P80511 1-92, looked up)
chain: MTKLEEHLEGIVNIFHQYSVRKGHFDTLSKGELKQLLTKELANTIKNIKDKAVIDEIFQGLDANQDEQVDFQEFISLVAIALKAAHYHTHKE
notes: S100A12, human, recombinant
  stoichiometry N: 2 and 4
